B1: Protein C-ets-1, residues 55 to 135; numbered along this chain, P14921 (parent)
chain: GFTKEQQRLGIPKDPRQWTETHVRDWVMWAVNEFSLKGVDFQKFCMNGAALCALGKDCFLELAPDFVGDILWEHLEILQKE

± gives the uncertainty stated by the source.

Variants of B1 are the subject of this data set. The data set is described as follows: abundance fitness (aPCA) (normalised: wild type 0, dead -1); higher = more abundant; growth selection in yeast, the domain comes from the species named. As to conditions: Homo sapiens.
Regarding GFTKEQQRLGIPKDPRQWTETHVRDWVMCAVNEFSLKGVDFQKFCMNGAALCALGKDCFLELAPDFVGDILWEHLEILQKE [W29C], the abundance fitness was -0.364 ± 0.061.

GFTKEQQRLGIPKDPRQWTETHVRDWVMRAVNEFSLKGVDFQKFCMNGAALCALGKDCFLELAPDFVGDILWEHLEILQKE [W29R]: the abundance fitness is -0.489 ± 0.031.

For the variant GFTKEQQRLGIPKDPRQWTETHVRDWVMVAVNEFSLKGVDFQKFCMNGAALCALGKDCFLELAPDFVGDILWEHLEILQKE [W29V], the abundance fitness is -0.767 ± 0.044.

As to GFTKEQQRLGIPKDPRQWTETHVRDWVMKAVNEFSLKGVDFQKFCMNGAALCALGKDCFLELAPDFVGDILWEHLEILQKE [W29K], the abundance fitness was -0.659 ± 0.064.

For the variant GFTKEQQRLGIPKDPRQWTETHVRDWVMGAVNEFSLKGVDFQKFCMNGAALCALGKDCFLELAPDFVGDILWEHLEILQKE [W29G], the abundance fitness was -0.492 ± 0.038.

With GFTKEQQRLGIPKDPRQWTETHVRDWVMAAVNEFSLKGVDFQKFCMNGAALCALGKDCFLELAPDFVGDILWEHLEILQKE [W29A], the abundance fitness is -0.415 ± 0.036.

On to GFTKEQQRLGIPKDPRQWTETHVRDWVMQAVNEFSLKGVDFQKFCMNGAALCALGKDCFLELAPDFVGDILWEHLEILQKE [W29Q], for which the abundance fitness was -0.59 ± 0.058.

GFTKEQQRLGIPKDPRQWTETHVRDWVMNAVNEFSLKGVDFQKFCMNGAALCALGKDCFLELAPDFVGDILWEHLEILQKE [W29N]: the abundance fitness was -0.586 ± 0.11.

For GFTKEQQRLGIPKDPRQWTETHVRDWVMTAVNEFSLKGVDFQKFCMNGAALCALGKDCFLELAPDFVGDILWEHLEILQKE [W29T], the abundance fitness is -0.515 ± 0.047.

Turning to GFTKEQQRLGIPKDPRQWTETHVRDWVMDAVNEFSLKGVDFQKFCMNGAALCALGKDCFLELAPDFVGDILWEHLEILQKE [W29D], the abundance fitness is -0.685 ± 0.064.

In the case of GFTKEQQRLGIPKDPRQWTETHVRDWVMEAVNEFSLKGVDFQKFCMNGAALCALGKDCFLELAPDFVGDILWEHLEILQKE [W29E], the abundance fitness was -0.561 ± 0.068.

Consider GFTKEQQRLGIPKDPRQWTETHVRDWVMIAVNEFSLKGVDFQKFCMNGAALCALGKDCFLELAPDFVGDILWEHLEILQKE [W29I], for which the abundance fitness was -0.803 ± 0.11.

For GFTKEQQRLGIPKDPRQWTETHVRDWVMSAVNEFSLKGVDFQKFCMNGAALCALGKDCFLELAPDFVGDILWEHLEILQKE [W29S], the abundance fitness was -0.395 ± 0.034.

GFTKEQQRLGIPKDPRQWTETHVRDWVMWKVNEFSLKGVDFQKFCMNGAALCALGKDCFLELAPDFVGDILWEHLEILQKE [A30K]: the abundance fitness was -0.366 ± 0.07.

Take GFTKEQQRLGIPKDPRQWTETHVRDWVMWHVNEFSLKGVDFQKFCMNGAALCALGKDCFLELAPDFVGDILWEHLEILQKE [A30H]: the abundance fitness was -0.107 ± 0.098.

For GFTKEQQRLGIPKDPRQWTETHVRDWVMWFVNEFSLKGVDFQKFCMNGAALCALGKDCFLELAPDFVGDILWEHLEILQKE [A30F], the abundance fitness was -0.187 ± 0.086.

Consider GFTKEQQRLGIPKDPRQWTETHVRDWVMWIVNEFSLKGVDFQKFCMNGAALCALGKDCFLELAPDFVGDILWEHLEILQKE [A30I], for which the abundance fitness is -0.196 ± 0.079.

Consider GFTKEQQRLGIPKDPRQWTETHVRDWVMWGVNEFSLKGVDFQKFCMNGAALCALGKDCFLELAPDFVGDILWEHLEILQKE [A30G], for which the abundance fitness is -0.197 ± 0.033.

For the variant GFTKEQQRLGIPKDPRQWTETHVRDWVMWLVNEFSLKGVDFQKFCMNGAALCALGKDCFLELAPDFVGDILWEHLEILQKE [A30L], the abundance fitness is -0.187 ± 0.036.

Take GFTKEQQRLGIPKDPRQWTETHVRDWVMWNVNEFSLKGVDFQKFCMNGAALCALGKDCFLELAPDFVGDILWEHLEILQKE [A30N]: the abundance fitness is -0.108 ± 0.092.

As to GFTKEQQRLGIPKDPRQWTETHVRDWVMWMVNEFSLKGVDFQKFCMNGAALCALGKDCFLELAPDFVGDILWEHLEILQKE [A30M], the abundance fitness was -0.008 ± 0.055.

In the case of GFTKEQQRLGIPKDPRQWTETHVRDWVMWDVNEFSLKGVDFQKFCMNGAALCALGKDCFLELAPDFVGDILWEHLEILQKE [A30D], the abundance fitness was -0.671 ± 0.086.

As to GFTKEQQRLGIPKDPRQWTETHVRDWVMWEVNEFSLKGVDFQKFCMNGAALCALGKDCFLELAPDFVGDILWEHLEILQKE [A30E], the abundance fitness was -0.032 ± 0.044.

Regarding GFTKEQQRLGIPKDPRQWTETHVRDWVMWCVNEFSLKGVDFQKFCMNGAALCALGKDCFLELAPDFVGDILWEHLEILQKE [A30C], the abundance fitness is -0.02 ± 0.059.

Turning to GFTKEQQRLGIPKDPRQWTETHVRDWVPWAVNEFSLKGVDFQKFCMNGAALCALGKDCFLELAPDFVGDILWEHLEILQKE [M28P], the abundance fitness was -0.88 ± 0.069.

Take GFTKEQQRLGIPKDPRQWTETHVRDWVSWAVNEFSLKGVDFQKFCMNGAALCALGKDCFLELAPDFVGDILWEHLEILQKE [M28S]: the abundance fitness came to 0.017 ± 0.033.

On to GFTKEQQRLGIPKDPRQWTETHVRDWVVWAVNEFSLKGVDFQKFCMNGAALCALGKDCFLELAPDFVGDILWEHLEILQKE [M28V], for which the abundance fitness was 0.009 ± 0.032.

Take GFTKEQQRLGIPKDPRQWTETHVRDWVLWAVNEFSLKGVDFQKFCMNGAALCALGKDCFLELAPDFVGDILWEHLEILQKE [M28L]: the abundance fitness is -0.022 ± 0.031.

For GFTKEQQRLGIPKDPRQWTETHVRDWVTWAVNEFSLKGVDFQKFCMNGAALCALGKDCFLELAPDFVGDILWEHLEILQKE [M28T], the abundance fitness was 0.07 ± 0.045.

As to GFTKEQQRLGIPKDPRQWTETHVRDWVNWAVNEFSLKGVDFQKFCMNGAALCALGKDCFLELAPDFVGDILWEHLEILQKE [M28N], the abundance fitness amounted to 0.054 ± 0.06.

With GFTKEQQRLGIPKDPRQWTETHVRDWVRWAVNEFSLKGVDFQKFCMNGAALCALGKDCFLELAPDFVGDILWEHLEILQKE [M28R], the abundance fitness was -0.004 ± 0.029.

Consider GFTKEQQRLGIPKDPRQWTETHVRDWVYWAVNEFSLKGVDFQKFCMNGAALCALGKDCFLELAPDFVGDILWEHLEILQKE [M28Y], for which the abundance fitness is -0.153 ± 0.087.

For GFTKEQQRLGIPKDPRQWTETHVRDWVWWAVNEFSLKGVDFQKFCMNGAALCALGKDCFLELAPDFVGDILWEHLEILQKE [M28W], the abundance fitness is -0.11 ± 0.039.

Regarding GFTKEQQRLGIPKDPRQWTETHVRDWVQWAVNEFSLKGVDFQKFCMNGAALCALGKDCFLELAPDFVGDILWEHLEILQKE [M28Q], the abundance fitness amounted to 0.014 ± 0.049.

The values above are taken from the Human Domainome abundance scans (Beltran et al. 2025).
